Experimental data published in publication PMC12663309, “NEK7 couples SDHB to orchestrate respiratory chain electron transport homeostasis that impedes liver fibrosis” (Nature Communications, 2025).

Target: T1, human NEK7 recombinant protein (HY-P75935, MCE) (human, UniProt Q8TDX7 1-302, RED-NHS dye label (in the MST only))
T1 construct: NEK7, human, commercially sourced recombinant protein; the vendor's catalogue entry would tell them; source: bought: MCE (HY-P75935), recombinant, purity 94%
Assay: SPR; Biacore T200; NEK7 or NEK7-mut immobilised by amine coupling; SDHB flowed at different concentrations; 1:1 Langmuir binding model
Settings: both partners purified

T1 sequence (Q8TDX7 whole entry, one chain of several): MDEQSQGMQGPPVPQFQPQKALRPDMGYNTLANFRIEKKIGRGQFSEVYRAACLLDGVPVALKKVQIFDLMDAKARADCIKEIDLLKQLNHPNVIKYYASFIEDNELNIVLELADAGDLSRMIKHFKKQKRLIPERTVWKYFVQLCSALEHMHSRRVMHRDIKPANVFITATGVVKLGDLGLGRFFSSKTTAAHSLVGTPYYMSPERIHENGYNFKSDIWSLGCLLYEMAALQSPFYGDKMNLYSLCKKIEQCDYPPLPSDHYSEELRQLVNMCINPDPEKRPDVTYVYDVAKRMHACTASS

Kd: 349 nM
B1: human SDHB recombinant protein (Ag29868, Proteintech) (natural protein, UniProt P21912 29-280, looked up)
chain: AQTAAATAPRIKKFAIYRWDPDKAGDKPHMQTYEVDLNKCGPMVLDALIKIKNEVDSTLTFRRSCREGICGSCAMNINGGNTLACTRRIDTNLNKVSKIYPLPHMYVIKDLVPDLSNFYAQYKSIEPYLKKKDESQEGKQQYLQSIEEREKLDGLYECILCACCSTSCPSYWWNGDKYLGPAVLMQAYRWMIDSRDDFTEERLAKLQDPFSLYRCHTIMNCTRTCPKGLNPGKAIAEIKKMMATYKEKKASV
notes: SDHB, human, commercially sourced recombinant protein; the vendor's catalogue entry would tell them (such antigen proteins may be tagged fragments); source: bought: Proteintech (Ag29868), recombinant, purity 80%
